Laboratory results reported in patent publication US20210285024.

Experiments:
[1] = tested on: recombinant alpha tubulin produced in bacteria
[2] = tested on: polymerized microtubules (MT)
[3] = tested on: recombinant engineered tyrosinated telokin containing the C-terminal sequence of alpha tubulin
[4] = tested on: bacterially produced recombinant human tubulin alpha-1A chain
[5] = tested on: tubulin purified from Spodoptera Frugiperda Sf9 cells (fully tyrosinated; used as purified tubulin or polymerised microtubules)
[6] = tested on: 8 amino acid peptide GEEEGEEY (last C-ter alpha-tubulin 1A/1B)

Chain of recombinant human Vasohibin-2 (VASH2) (chain, as listed by the source): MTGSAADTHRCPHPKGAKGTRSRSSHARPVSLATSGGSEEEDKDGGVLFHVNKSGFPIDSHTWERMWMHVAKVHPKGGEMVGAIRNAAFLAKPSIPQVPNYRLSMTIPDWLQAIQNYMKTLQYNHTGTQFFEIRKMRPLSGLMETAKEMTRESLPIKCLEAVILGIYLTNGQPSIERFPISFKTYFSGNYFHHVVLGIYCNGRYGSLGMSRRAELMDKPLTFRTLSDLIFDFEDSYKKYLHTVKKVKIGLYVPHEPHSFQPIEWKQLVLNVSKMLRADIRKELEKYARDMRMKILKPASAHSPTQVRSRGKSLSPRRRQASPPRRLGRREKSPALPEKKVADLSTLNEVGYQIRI
Chain of recombinant human Vasohibin-1 (VASH1) (chain, as listed by the source): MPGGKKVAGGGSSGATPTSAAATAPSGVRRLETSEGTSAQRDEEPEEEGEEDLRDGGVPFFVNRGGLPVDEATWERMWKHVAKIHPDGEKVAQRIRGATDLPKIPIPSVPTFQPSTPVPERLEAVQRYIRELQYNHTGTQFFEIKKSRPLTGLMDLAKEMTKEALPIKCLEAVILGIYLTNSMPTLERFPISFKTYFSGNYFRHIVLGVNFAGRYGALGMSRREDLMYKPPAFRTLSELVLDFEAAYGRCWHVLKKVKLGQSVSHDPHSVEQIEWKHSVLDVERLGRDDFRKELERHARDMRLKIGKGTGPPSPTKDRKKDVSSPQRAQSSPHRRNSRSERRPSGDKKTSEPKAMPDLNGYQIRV
Chain of recombinant engineered tyrosinated telokin containing the C-terminal sequence of alpha tubulin (chain, as listed by the source, change not shown): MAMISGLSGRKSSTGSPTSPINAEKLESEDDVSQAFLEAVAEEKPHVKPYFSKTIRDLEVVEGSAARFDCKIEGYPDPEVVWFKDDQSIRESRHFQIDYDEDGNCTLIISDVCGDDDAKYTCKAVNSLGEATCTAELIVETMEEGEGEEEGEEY

| Substance | detyrosination [1] | detyrosination [2] | detyrosination (tubulin dimers (TD)) | detyrosination activity [3] | free tyrosine release (tyrosinase colorimetric assay, OD305) [4] | in vitro detyrosination assay (TCPase activity, immunoblot) [5] | detyrosination of the peptide (dot blot) [6] |
| --- | --- | --- | --- | --- | --- | --- | --- |
| recombinant human Vasohibin-1 (VASH1) | almost inactive on recombinant alpha tubulin produced in bacteria | VASH1 was much less effective on microtubules and tubulin dimers | VASH1 was much less effective on microtubules and tubulin dimers |  |  |  |  |
| recombinant human Vasohibin-2 (VASH2) | Recombinant human VASH2 produced in bacteria detyrosinates polymerized microtubules (MT), tubulin dimers (TD) and recombinant alpha tubulin | Recombinant human VASH2 produced in bacteria detyrosinates polymerized microtubules (MT), tubulin dimers (TD) and recombinant alpha tubulin | Recombinant human VASH2 produced in bacteria detyrosinates polymerized microtubules (MT), tubulin dimers (TD) and recombinant alpha tubulin | recombinant VASH2 protein showed detyrosination activity on polymerized microtubule, tubulin dimers, recombinant alpha tubulin, engineered Telokin protein containing C-terminal sequence of alpha tubulin and on synthetic peptides | Release of tyrosine by VASH2 could be observed (Sample D-FIG. 16.) | VASH2 acted as an autonomous enzyme that did not require the small vasohibin binding protein as a chaperone to enzymatically be active | Recombinant human VASH2 and catalytically dead (VASH2D) produced in bacteria detyrosinates a 8 amino acid peptide consisting of GEEEGEEY |
